Laboratory results: paper PMC8965080 (Frontiers in Microbiology, 2022)

Experiments:
[1] = target: T1, Fdh3A (Thermococcus onnurineus, UniProt B6YU84); test: formate-dependent methyl viologen reduction, absorbance at […] nm; format: biochemical; settings: 100 mM sodium formate, 2 mM methyl viologen, 0.1 M Tris-HCl pH 8.5, 10% glycerol, 2 mM DTT; anaerobic; turnover only
T1 construct: gene TON_0539; Catalytic subunit alone; N-terminal 6xHis tag; expressed in T. onnurineus MF02 (parent 156T, fdh3 region deleted); one-step TALON IMAC
T1 sequence (B6YU84 1-680): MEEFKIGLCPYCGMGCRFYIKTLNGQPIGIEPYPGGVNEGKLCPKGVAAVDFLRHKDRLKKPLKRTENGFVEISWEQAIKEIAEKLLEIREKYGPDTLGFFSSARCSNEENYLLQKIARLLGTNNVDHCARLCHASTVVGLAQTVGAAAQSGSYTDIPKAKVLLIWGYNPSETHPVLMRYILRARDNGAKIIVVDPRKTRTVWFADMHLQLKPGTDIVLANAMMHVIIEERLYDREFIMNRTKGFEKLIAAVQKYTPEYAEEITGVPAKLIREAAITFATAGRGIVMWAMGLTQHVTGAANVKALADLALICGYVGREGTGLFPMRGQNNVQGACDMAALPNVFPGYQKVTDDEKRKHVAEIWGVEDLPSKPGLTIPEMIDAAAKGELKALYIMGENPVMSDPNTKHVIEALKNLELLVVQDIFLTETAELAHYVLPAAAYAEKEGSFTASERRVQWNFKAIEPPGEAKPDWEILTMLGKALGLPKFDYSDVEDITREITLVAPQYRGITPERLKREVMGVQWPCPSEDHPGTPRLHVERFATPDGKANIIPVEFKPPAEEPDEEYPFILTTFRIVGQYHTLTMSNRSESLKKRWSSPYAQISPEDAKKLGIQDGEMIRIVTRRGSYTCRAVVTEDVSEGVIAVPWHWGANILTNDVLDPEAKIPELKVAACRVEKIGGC

[2] = target: Fdh3A, formate dehydrogenase large (catalytic) subunit (TON_0539) of Thermococcus onnurineus NA1, with N-terminal 6X-His tag (Thermococcus onnurineus NA1); test: affinity purification with mass spectrometry; lysate of strain MF01 on TALON IMAC resin (N-terminal 6X-His on Fdh3A), eluted with 300 mM imidazole, then SEC on Superose 6 Increase 10/300 in buffer A (0.1 M Tris-HCl pH 8.0, 150 mM NaCl, 19 mM KCl, 10% glycerol); bands of the SDS-PAGE identified by MALDI mass spectrometry; anaerobic chamber
[3] = target: Fdh3A, formate dehydrogenase large (catalytic) subunit (TON_0539) of Thermococcus onnurineus NA1, with N-terminal 6X-His tag (Thermococcus onnurineus NA1)
[4] = substrate: NC(=O)c1ccc[n+]([C@@H]2O[C@H](COP(=O)(O)OP(=O)(O)OC[C@H]3O[C@@H](n4cnc5c(N)ncnc54)[C@H](OP(=O)(O)O)[C@@H]3O)[C@@H](O)[C@H]2O)c1; test: purified protein; format: biochemical, Thermococcus onnurineus; settings: co-substrate formate (100 mM in the standard assay), 0.1 M Tris-HCl pH 8.5, 10% glycerol, 2 mM DTT, anaerobic, optimum 80 °C (temperature of Km assay not stated), site on Fdh3B (TON_0542) by model
[5] = substrate: O=CO; test: purified protein; settings: NADP+ as electron acceptor (2 mM in the standard assay), 0.1 M Tris-HCl pH 8.5, 10% glycerol, 2 mM DTT, anaerobic, optimum 80 °C (temperature of Km assay not stated), catalytic site on Fdh3A (TON_0539)

C[n+]1ccc(-c2cc[n+](C)cc2)cc1 [methyl viologen]
formate-dependent methyl viologen reduction, absorbance at 578 nm [1]: The specific activities of formate-dependent methyl viologen reduction of Fdh3 and Fdh3A were similar

O=CO [formate]
formate-dependent methyl viologen reduction, absorbance at 578 nm [1]: The specific activities of formate-dependent methyl viologen reduction of Fdh3 and Fdh3A were similar

Fdh3B, NAD(P)-binding protein (TON_0542) of Thermococcus onnurineus NA1 (natural protein)
stoichiometry N [2]: 1

ferredoxin Fd0317 (TON_0317) of Thermococcus onnurineus NA1 (from UniProt B6YTB5 1-67) (natural protein)
formate-dependent ferredoxin-reducing activity of Fdh3A alone (purified from strain MF02), based on the same methyl viologen activity [3]: 16.8 mU/U | formate-dependent ferredoxin-reducing activity of the purified Fdh3 complex (Fdh3A with Fdh3B, Fdh3G1 and Fdh3G2), based on the same methyl viologen activity [3]: 17.9 mU/U

B1: Fdh3 (Thermococcus onnurineus NA1) (protein)
chain 1: T1 sequence (B6YU84 1-680)
chain 2: MSGMRFAFLCRERPEPTGKKIAVIGAGPAGLAATGYLVCQGHEVHVYDKLPEPGGLMLFGIPEFRIPIYRVREGYEELERVYNVKFFTRTKVYFGNLEGESGDEFVENRVDFKELVEKYDAVLIATGTWKCWIPNIEGAELEGVFPALEYLFRIKSAKLGHMDWGKVTPVEGKKVLVVGAGHTAVDAALESVLLGADKVYLSYRRTIREAPAGAYEINLLQQRGVKWLERTMPVRIIGENGKVRAVELVKTKLSEPDESGRRRPVPIEGSNFQIDVDYVIFAVGQSPTPPFAEEIDIAVDKKGRIVVDNRHMTSREGVFAAGDVVLGPSKVGKAVKDGLYAAEAMHMWLMGR
notes: Tungsten-containing cytoplasmic complex; N-terminal 6xHis tag on TON_0539; overexpressed in T. onnurineus MF01 (fdh1 fdh2 fdh3 deleted), TALON IMAC and SEC; 524 kDa by SEC; TON_0541 not detected
Km [4]: 0.040 mM | Km [5]: 13.5 mM
